According to paper PMC3443260:
Read-outs that look alike come from different tables or passages of the source.

Key:
[1] = target: Flag-tagged mouse GGA2 (mouse) (UniProt Q6P5E6); experiment: BLI
[2] = target: Flag-tagged mouse GGA2 (mouse) (UniProt Q6P5E6); experiment: BLI; remark: listed apart in the source
[3] = target: CI-MPR C-terminal DXXLL peptide (Homo sapiens) (UniProt P11717); experiment: ITC; conditions: cited from earlier work

Flag-tagged mouse GGA2 (mouse), sequence (Q6P5E6 whole entry): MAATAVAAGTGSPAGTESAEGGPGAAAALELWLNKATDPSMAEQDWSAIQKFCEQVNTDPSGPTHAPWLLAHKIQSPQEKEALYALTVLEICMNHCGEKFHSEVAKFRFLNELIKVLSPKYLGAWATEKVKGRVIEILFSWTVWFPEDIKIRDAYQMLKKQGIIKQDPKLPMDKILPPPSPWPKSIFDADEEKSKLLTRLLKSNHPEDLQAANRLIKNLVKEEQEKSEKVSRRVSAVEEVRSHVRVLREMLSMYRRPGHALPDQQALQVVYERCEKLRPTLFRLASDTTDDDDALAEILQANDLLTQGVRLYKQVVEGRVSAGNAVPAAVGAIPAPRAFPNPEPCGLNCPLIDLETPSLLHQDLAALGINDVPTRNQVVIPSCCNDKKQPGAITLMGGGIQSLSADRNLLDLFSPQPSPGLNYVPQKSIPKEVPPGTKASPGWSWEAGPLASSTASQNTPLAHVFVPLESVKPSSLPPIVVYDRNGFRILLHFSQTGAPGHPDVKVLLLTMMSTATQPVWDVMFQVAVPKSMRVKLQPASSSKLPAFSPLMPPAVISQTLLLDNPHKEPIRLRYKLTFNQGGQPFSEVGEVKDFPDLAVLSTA
GGA2 VHS, sequence (Q9UJY4 30-166): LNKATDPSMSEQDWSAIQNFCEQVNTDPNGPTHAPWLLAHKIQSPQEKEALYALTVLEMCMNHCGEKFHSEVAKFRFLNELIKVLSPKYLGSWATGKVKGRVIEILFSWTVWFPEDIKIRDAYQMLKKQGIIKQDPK

Substance | Kd [1] | koff [1] | Kd [2] | Kd [3]
MBP-LRP9 30mer with the C-terminal DXXLL motif mutated to AXXAA (peptide) | 280 nM | 0.0059 s⁻¹ | 380 nM | 
MBP-LRP9 30mer containing both DXXLL motifs (peptide) | 150 nM | 0.0052 s⁻¹ |  | 
GGA2 VHS (from UniProt Q9UJY4) |  |  |  | 7100 nM
